Among the data in US20180155451A1 (published 2018) are Ho/Con_3a and He/Con_1a values, retold here.

Test [1] has as its target T1, FcγRIIIa extracellular domain with C-terminal His tag (human, UniProt P08637 17-208).
T1 construct: extracellular domain; also called FcgRIIIa; 3a; not shown: His tag at the C terminus
Put plainly: SPR relative binding; GpH7-B3/GpL16-k0 = 100. The protocol: Analysis of interaction between objective antibody and the FcγR was carried out using Biacore T100 (GE Healthcare). HBS-EP+ (GE Healthcare) was used as the running buffer, and the measurement temperature was set to 25° C. Chips produced by immobilizing the antigen peptide by the amine coupling method to a Series S Sencor Chip CM5 (GE Healthcare), or alternatively, chips produced by allowing preliminarily biotinylated antigen peptides to interact with and immobilize onto a Series S Sensor Chip SA (certified) (GE Healthcare) were used. Antibodies of interest were captured onto an antigen peptide-immobilized chip, and allowed to interact to each FcγR diluted with running buffer. To regenerate and repeatedly use the chip, the antibodies captured on the chip were washed off by reacting 10 mM glycine-HCl, pH 1.5.
The FcγR-binding activity of each antibody was assessed primarily using as an indicator the FcγR-binding activity and dissociation constant for FcγR.

The target of test [2] is T2, FcγRIa extracellular domain with C-terminal His tag (human, UniProt P12314 16-292).
T2 construct: extracellular domain; soluble analyte in Biacore; also called FcgRI; CD64
Briefly: SPR (Biacore), relative FcγRIa binding, GpH7-A5/GpH7-B3/GpL16-k0 (HeCon Ab) = 100. Background: In SPR one partner is held on a chip, and binding of the other changes the refractive index at the surface.

T2 sequence (P12314 16-292): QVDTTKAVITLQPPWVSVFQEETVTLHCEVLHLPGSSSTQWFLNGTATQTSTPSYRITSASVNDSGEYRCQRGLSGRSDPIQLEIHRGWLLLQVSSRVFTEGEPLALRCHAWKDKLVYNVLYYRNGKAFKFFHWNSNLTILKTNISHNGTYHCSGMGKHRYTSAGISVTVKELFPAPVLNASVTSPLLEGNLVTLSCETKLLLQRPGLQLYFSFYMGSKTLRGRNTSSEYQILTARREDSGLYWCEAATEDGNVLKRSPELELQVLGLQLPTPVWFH
T1 sequence (P08637 17-208): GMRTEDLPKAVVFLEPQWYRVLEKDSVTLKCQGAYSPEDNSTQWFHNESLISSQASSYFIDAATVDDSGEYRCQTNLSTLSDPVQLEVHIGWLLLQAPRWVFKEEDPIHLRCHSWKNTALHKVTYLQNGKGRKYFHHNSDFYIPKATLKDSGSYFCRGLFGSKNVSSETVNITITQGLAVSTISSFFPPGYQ

B1: GpH7-B3 variant S337_04F/GpL16-k0 (antibody, human IgG1, kappa)
heavy: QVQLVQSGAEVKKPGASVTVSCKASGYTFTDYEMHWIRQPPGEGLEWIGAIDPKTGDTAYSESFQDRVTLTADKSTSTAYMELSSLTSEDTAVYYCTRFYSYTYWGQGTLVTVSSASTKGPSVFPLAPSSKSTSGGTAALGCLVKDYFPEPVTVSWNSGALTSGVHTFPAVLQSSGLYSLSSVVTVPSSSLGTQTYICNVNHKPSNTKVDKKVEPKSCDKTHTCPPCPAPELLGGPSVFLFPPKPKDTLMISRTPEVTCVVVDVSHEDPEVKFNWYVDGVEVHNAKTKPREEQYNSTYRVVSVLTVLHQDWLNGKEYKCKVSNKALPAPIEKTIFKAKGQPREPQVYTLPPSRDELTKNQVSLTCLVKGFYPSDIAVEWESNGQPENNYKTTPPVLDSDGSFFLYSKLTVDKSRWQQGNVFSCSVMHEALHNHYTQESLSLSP
light: DIVMTQSPLSLPVTPGEPASISCQASESLVHSNRNTYLHWYLQKPGQSPQLLIYKVSNRFSGVPDRFSGSGSGTDFTLKISRVEAEDVGVYYCSQNTHVPPTFGQGTKVEIERTVAAPSVFIFPPSDEQLKSGTASVVCLLNNFYPREAKVQWKVDNALQSGNSQESVTEQDSKDSTYSLSSTLTLSKADYEKHKVYACEVTHQGLSSPVTKSFNRGEC
notes: also called Ho Ab S337_04F
With B1, the Ho/Con_3a in test [1] was 95.6 % of control.

B2: GpH7-A5/GpH7-B3 variant S337_11K/GpL16-k0 (antibody, human IgG1, kappa)
heavy 1: not shown
heavy 2: not shown
light: B1 light
notes: heterodimerized antibody, mutation in one H chain only; also called S337_11K He Ab
B2: the He/Con_1a in test [2] was 104 % of control.

B3: GpH7-A5/GpH7-B3 variant P271_01G/GpL16-k0 (antibody, human IgG1, kappa)
heavy 1: not shown
heavy 2: not shown
light: B1 light
notes: heterodimerized antibody, mutation in one H chain only; also called P271_01G He Ab
As to B3, the He/Con_1a in test [2] is 105 % of control.

B4: GpH7-A5/GpH7-B3 variant Y300_16H/GpL16-k0 (antibody, human IgG1, kappa)
heavy 1: not shown
heavy 2: not shown
light: B1 light
notes: heterodimerized antibody, mutation in one H chain only; also called Y300_16H He Ab
As to B4, in test [2], the He/Con_1a is 111 % of control.

B5: GpH7-A5/GpH7-B3 variant K334_13S/GpL16-k0 (antibody, human IgG1, kappa)
heavy 1: not shown
heavy 2: not shown
light: B1 light
notes: heterodimerized antibody, mutation in one H chain only; also called K334_13S He Ab
On to B5, for which, in test [2], the He/Con_1a is 105 % of control.

B6: GpH7-B3 variant H268_02A/GpL16-k0 (antibody, human IgG1, kappa)
heavy: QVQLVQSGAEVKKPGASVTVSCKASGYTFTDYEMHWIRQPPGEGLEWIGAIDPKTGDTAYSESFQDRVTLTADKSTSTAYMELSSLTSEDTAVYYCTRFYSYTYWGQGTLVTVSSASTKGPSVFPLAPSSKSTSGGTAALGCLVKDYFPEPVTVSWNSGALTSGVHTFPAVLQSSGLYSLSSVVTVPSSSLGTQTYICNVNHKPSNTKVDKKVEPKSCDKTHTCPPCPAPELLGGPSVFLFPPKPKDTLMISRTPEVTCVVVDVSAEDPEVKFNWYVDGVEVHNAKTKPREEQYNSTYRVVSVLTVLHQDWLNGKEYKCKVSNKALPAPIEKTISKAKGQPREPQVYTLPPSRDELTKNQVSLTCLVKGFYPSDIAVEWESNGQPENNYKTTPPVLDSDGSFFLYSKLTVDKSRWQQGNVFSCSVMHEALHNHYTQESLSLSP
light: B1 light
notes: also called Ho Ab H268_02A
Take B6: in test [1], the Ho/Con_3a is 118 % of control.

B7: GpH7-A5/GpH7-B3 variant T335_02A/GpL16-k0 (antibody, human IgG1, kappa)
heavy 1: not shown
heavy 2: not shown
light: B1 light
notes: heterodimerized antibody, mutation in one H chain only; also called T335_02A He Ab
As for B7, in test [2], the He/Con_1a is 103 % of control.

B8: GpH7-A5/GpH7-B3 variant K334_16H/GpL16-k0 (antibody, human IgG1, kappa)
heavy 1: not shown
heavy 2: not shown
light: B1 light
notes: heterodimerized antibody, mutation in one H chain only; also called K334_16H He Ab
As to B8, the He/Con_1a in test [2] is 105 % of control.

B9: GpH7-A5/GpH7-B3 variant K334_14T/GpL16-k0 (antibody, human IgG1, kappa)
heavy 1: not shown
heavy 2: not shown
light: B1 light
notes: heterodimerized antibody, mutation in one H chain only; also called K334_14T He Ab
On to B9, for which the He/Con_1a in test [2] is 105 % of control.

B10: GpH7-B3 variant E333_20W/GpL16-k0 (antibody, human IgG1, kappa)
heavy: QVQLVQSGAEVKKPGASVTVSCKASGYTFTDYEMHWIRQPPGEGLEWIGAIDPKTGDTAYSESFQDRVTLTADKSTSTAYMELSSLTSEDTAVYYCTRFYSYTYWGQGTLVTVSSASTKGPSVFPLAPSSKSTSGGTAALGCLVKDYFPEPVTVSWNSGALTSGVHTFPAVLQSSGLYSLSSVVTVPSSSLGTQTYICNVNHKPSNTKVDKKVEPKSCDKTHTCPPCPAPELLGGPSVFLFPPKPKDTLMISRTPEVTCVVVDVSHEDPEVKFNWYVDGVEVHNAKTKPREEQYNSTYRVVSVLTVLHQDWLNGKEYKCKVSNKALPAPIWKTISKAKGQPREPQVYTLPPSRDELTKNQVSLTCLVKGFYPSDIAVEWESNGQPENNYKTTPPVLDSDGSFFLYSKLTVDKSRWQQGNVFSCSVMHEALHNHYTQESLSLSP
light: B1 light
notes: also called Ho Ab E333_20W
Take B10: in test [1], the Ho/Con_3a is 90.9 % of control.

B11: GpH7-A5/GpH7-B3 variant P271_08L/GpL16-k0 (antibody, human IgG1, kappa)
heavy 1: not shown
heavy 2: not shown
light: B1 light
notes: heterodimerized antibody, mutation in one H chain only; also called P271_08L He Ab
Take B11: the He/Con_1a in test [2] is 102 % of control.

B12: GpH7-A5/GpH7-B3 variant S267_14T/GpL16-k0 (antibody, human IgG1, kappa)
heavy 1: not shown
heavy 2: not shown
light: B1 light
notes: heterodimerized antibody, mutation in one H chain only; also called S267_14T He Ab
For B12, in test [2], the He/Con_1a was 102 % of control.

B13: GpH7-A5/GpH7-B3 variant T335_01G/GpL16-k0 (antibody, human IgG1, kappa)
heavy 1: not shown
heavy 2: not shown
light: B1 light
notes: heterodimerized antibody, mutation in one H chain only; also called T335_01G He Ab
B13: in test [2], the He/Con_1a was 104 % of control.

B14: GpH7-B3 variant E333_09D/GpL16-k0 (antibody, human IgG1, kappa)
heavy: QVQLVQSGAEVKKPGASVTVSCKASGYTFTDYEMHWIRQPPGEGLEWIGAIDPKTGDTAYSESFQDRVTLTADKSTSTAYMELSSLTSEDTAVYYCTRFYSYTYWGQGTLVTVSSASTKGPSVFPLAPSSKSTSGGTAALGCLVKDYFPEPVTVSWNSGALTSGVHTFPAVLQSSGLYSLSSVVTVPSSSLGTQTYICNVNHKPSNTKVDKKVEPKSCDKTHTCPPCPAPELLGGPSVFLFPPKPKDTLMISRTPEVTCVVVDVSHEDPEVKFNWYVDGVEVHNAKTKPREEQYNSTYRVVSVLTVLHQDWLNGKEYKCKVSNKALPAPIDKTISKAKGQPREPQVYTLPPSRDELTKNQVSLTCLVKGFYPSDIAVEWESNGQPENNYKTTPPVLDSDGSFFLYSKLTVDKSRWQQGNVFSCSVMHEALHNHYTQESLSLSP
light: B1 light
notes: also called Ho Ab E333_09D
On to B14, for which the Ho/Con_3a in test [1] is 109 % of control.

B15: GpH7-B3 variant E333_13S/GpL16-k0 (antibody, human IgG1, kappa)
heavy: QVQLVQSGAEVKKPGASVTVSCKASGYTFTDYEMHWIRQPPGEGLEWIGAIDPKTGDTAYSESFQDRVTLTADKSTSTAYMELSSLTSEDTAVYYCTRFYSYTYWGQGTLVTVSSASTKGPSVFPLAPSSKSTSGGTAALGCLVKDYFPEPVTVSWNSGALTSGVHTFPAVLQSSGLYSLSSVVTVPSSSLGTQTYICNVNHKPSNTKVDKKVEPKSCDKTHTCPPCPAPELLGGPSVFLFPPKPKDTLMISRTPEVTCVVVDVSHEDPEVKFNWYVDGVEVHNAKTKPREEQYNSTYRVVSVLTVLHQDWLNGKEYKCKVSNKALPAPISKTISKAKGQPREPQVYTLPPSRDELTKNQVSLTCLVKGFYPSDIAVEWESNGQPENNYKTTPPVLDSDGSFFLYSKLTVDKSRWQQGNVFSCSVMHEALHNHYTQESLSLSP
light: B1 light
notes: also called Ho Ab E333_13S
For the molecule B15, the Ho/Con_3a in test [1] is 95.1 % of control.

B16: GpH7-A5/GpH7-B3 variant P271_10E/GpL16-k0 (antibody, human IgG1, kappa)
heavy 1: not shown
heavy 2: not shown
light: B1 light
notes: heterodimerized antibody, mutation in one H chain only; also called P271_10E He Ab
B16: the He/Con_1a in test [2] is 103 % of control.

B17: GpH7-A5/GpH7-B3 variant S337_16H/GpL16-k0 (antibody, human IgG1, kappa)
heavy 1: not shown
heavy 2: not shown
light: B1 light
notes: heterodimerized antibody, mutation in one H chain only; also called S337_16H He Ab
On to B17, for which the He/Con_1a in test [2] is 105 % of control.

B18: GpH7-A5/GpH7-B3 variant S267_18N/GpL16-k0 (antibody, human IgG1, kappa)
heavy 1: not shown
heavy 2: not shown
light: B1 light
notes: heterodimerized antibody, mutation in one H chain only; also called S267_18N He Ab
Regarding B18, the He/Con_1a in test [2] was 102 % of control.

B19: GpH7-A5/GpH7-B3 variant L328_15Y/GpL16-k0 (antibody, human IgG1, kappa)
heavy 1: not shown
heavy 2: not shown
light: B1 light
notes: heterodimerized antibody, mutation in one H chain only; also called L328_15Y He Ab
Consider B19, for which the He/Con_1a in test [2] was 102 % of control.

B20: GpH7-A5/GpH7-B3 variant T335_13S/GpL16-k0 (antibody, human IgG1, kappa)
heavy 1: not shown
heavy 2: not shown
light: B1 light
notes: heterodimerized antibody, mutation in one H chain only; also called T335_13S He Ab
With B20, the He/Con_1a in test [2] was 105 % of control.

B21: GpH7-A5/GpH7-B3 variant Q295_10E/GpL16-k0 (antibody, human IgG1, kappa)
heavy 1: not shown
heavy 2: not shown
light: B1 light
notes: heterodimerized antibody, mutation in one H chain only; also called Q295_10E He Ab
With B21, the He/Con_1a in test [2] is 103 % of control.

B22: GpH7-A5/GpH7-B3 variant S324_10E/GpL16-k0 (antibody, human IgG1, kappa)
heavy 1: not shown
heavy 2: not shown
light: B1 light
notes: heterodimerized antibody, mutation in one H chain only; also called S324_10E He Ab
As to B22, in test [2], the He/Con_1a was 105 % of control.

B23: GpH7-A5/GpH7-B3 variant Y296_03V/GpL16-k0 (antibody, human IgG1, kappa)
heavy 1: not shown
heavy 2: not shown
light: B1 light
notes: heterodimerized antibody, mutation in one H chain only; also called Y296_03V He Ab
As to B23, in test [2], the He/Con_1a was 104 % of control.

B24: GpH7-A5/GpH7-B3 variant S298_09D/GpL16-k0 (antibody, human IgG1, kappa)
heavy 1: not shown
heavy 2: not shown
light: B1 light
notes: heterodimerized antibody, mutation in one H chain only; also called S298_09D He Ab
Consider B24, for which the He/Con_1a in test [2] was 106 % of control.

B25: GpH7-B3 variant E333_03V/GpL16-k0 (antibody, human IgG1, kappa)
heavy: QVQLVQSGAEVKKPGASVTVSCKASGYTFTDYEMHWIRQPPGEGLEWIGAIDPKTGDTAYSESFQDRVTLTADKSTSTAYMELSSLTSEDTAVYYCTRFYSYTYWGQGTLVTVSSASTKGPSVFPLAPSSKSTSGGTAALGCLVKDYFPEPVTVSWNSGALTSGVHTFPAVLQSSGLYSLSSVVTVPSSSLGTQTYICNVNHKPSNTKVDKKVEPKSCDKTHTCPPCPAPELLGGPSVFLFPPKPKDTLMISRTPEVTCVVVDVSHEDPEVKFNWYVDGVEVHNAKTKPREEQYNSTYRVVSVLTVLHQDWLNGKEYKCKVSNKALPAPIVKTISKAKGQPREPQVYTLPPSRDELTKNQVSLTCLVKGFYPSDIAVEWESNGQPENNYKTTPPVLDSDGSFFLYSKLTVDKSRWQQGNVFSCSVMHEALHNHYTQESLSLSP
light: B1 light
notes: also called Ho Ab E333_03V
Consider B25, for which the Ho/Con_3a in test [1] is 86.5 % of control.
